According to patent publication US20260035468A1 (INSTITUT NATIONAL DE LA SANT ET DE LA RECHERCHE M DICALE, published 2026):

Biological target: T1, β8 chain of αvβ8 integrin (Itgβ8) expressed on human tumor Treg cells (human, UniProt P26012 43-769; P06756 31-1048)
T1 construct: whole, on cells; also called Itgb8 chain on human Treg cells; human Itgβ8
Experiment: staining of cells of one fresh human colonic tumor (data not shown)

T1 sequence (P26012 43-769, chain 1 of 2): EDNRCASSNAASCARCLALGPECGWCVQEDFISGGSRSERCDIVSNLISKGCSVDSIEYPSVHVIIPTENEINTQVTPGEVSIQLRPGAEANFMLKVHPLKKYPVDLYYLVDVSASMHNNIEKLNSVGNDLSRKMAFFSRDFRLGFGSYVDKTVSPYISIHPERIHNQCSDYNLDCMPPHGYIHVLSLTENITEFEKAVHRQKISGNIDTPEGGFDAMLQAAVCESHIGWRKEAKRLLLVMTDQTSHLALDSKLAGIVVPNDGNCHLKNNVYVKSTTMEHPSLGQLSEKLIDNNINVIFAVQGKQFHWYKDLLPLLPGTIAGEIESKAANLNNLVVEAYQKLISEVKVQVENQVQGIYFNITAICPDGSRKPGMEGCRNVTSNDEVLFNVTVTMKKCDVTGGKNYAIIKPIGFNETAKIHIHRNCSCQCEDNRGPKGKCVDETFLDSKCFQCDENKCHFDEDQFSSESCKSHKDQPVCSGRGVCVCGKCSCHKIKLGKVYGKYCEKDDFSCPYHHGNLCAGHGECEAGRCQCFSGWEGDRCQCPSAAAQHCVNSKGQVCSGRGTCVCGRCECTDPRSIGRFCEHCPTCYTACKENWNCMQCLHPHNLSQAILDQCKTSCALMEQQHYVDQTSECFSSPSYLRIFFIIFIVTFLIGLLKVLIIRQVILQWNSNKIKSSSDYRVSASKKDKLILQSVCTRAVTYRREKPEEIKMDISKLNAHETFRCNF
T1 sequence (P06756 31-1048, chain 2 of 2): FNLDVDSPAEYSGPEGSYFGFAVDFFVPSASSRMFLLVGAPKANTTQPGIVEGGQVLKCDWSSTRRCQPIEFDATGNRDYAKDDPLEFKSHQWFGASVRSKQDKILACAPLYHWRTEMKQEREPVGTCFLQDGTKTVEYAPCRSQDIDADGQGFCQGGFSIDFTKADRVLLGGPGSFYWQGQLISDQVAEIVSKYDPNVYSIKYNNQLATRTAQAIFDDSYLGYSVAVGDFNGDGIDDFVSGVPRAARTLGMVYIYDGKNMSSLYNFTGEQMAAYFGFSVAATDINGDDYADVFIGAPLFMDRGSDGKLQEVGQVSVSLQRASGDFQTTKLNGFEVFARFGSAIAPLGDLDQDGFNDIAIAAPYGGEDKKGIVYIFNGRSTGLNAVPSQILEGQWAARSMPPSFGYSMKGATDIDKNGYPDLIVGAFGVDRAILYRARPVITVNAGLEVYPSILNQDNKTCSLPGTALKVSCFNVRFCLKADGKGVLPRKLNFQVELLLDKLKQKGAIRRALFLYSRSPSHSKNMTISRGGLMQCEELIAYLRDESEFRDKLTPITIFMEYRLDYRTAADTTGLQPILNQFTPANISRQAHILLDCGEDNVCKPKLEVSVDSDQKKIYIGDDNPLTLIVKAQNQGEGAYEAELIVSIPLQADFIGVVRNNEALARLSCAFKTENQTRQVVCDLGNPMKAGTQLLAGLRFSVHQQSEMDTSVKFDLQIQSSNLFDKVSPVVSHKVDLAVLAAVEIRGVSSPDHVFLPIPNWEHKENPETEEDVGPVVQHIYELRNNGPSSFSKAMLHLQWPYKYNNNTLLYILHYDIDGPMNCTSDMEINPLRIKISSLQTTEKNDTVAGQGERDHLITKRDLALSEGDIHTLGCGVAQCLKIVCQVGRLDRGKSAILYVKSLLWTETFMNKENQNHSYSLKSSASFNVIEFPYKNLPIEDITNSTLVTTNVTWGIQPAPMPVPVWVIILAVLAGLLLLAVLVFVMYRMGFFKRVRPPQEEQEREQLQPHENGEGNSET

| binding result | Binder |
| --- | --- |
| binds | Mab 1G10G4 (antibody, V domains shown, Mouse hybridoma antibody tested as clone supernatant; also called 1G10G4 mAb; clone 3) VH: QVQLQQSGAELARPGASVKMSCKASGYTFTSYTMHWVKQRPGQGLEWIGYINPSSGYTKYNQKFKDKATLTADKSSSTAYMQLSSLTSEDSAVYYCARAEGLRAWFAYWGQGTLVTVSA VL: DIVMTQSQKFMSTSVGDRVSVTCKASQNVGTNVAWYQQKPGQSPKALIYSASYRYSGVPDHFTGSGSGTDFTLTIINVQSEDLAEYFCQQYNSYPYTFGGGTKLEIK |
| binds | Mab 9B2 (antibody, V domains shown, Mouse hybridoma antibody tested as clone supernatant; also called 9B2 mAb; clone 1) VH: QVQLQQSGAELAKPGASVKLSCKASGYTFTRYWMHWVKQRPGQGLEWIGHINPSSGYTKYNQKFKDKATLTADKSSSTAYMQLSSLTYEDSAVYYCAREVYYYGSSYGDFDYWGQGTTLTVSS VL: QIVLTQSPAIMSASPGEKVTISCSASSSVSYMYWYQQKPGSSPKPWIYRTSNLASGVPARFSGSGSGTSYSLTISSMEAEDAATYYCQQYHSYPLTFGAGTKLELK |
